# B1: mouse histone H1a (natural protein, UniProt P43275 1-213, looked up)
# chain: MSETAPVAQAASTATEKPAAAKKTKKPAKAAAPRKKPAGPSVSELIVQAVSSSKERSGVSLAALKKSLAAAGYDVEKNNSRIKLGLKSLVNKGTLVQTKGTGAAGSFKLNKKAESKAITTKVSVKAKASGAAKKPKKTAGAAAKKTVKTPKKPKKPAVSKKTSKSPKKPKVVKAKKVAKSPAKAKAVKPKASKAKVTKPKTPAKPKKAAPKKK
# notes: mouse histone H1a (H1.1); source: bought: Lifespan Biosciences
# B2: mouse WT sNASP (somatic nuclear autoantigenic sperm protein), B6 allele (natural protein)
# chain: MATESTAAAAIAAELVSADKIEDAPAPSTSADKMESLDVDSEAKKLLGLGQKHLVMGDIPAAVNAFQEAASLLGKKYGETANECGEAFFFYGKSLLELARMENGVLGNALEGVHVEEEEGEKTEDESLVENNDNVDETEGSEEEDRENDKAEETPNESVLEKKSLQENEEEEIGNLELAWDMLDLAKIIFKRQETKEAQLYAAQAHLKLGEVSVESENYIQAVEEFQACLSLQEQYLEAHDRLLAETHYQLGLAYGYNSQYDEAVAQFGKSIDVIEKRMAVLHEQMKEAEGSFTEYEKEIEELKELLPEIREKIEDAKESQRSGNVAELALKATLVESSTSGFTPSGAGASVSMIASRKPTDGASSSNCVTDISHLVRKKRKPEEESPRKDDAKKAKQEPEVNGGSGDAVSSGKEVSENMEAEAENQAESQTAEGTVESAATIKSTAC
# modifications: Somatic isoform of 448 aa = 773-aa tNASP entry lacking 325 residues (internal testis-specific exon). Junction 137/463 set by homology to human sNASP and the printed length, not printed in the paper. …
# What was measured:
# [1] = target: B2; assay: BLI; Octet K2, 30 C; sNASP WT or variant immobilised on aminopropylsilane (APS) biosensors, histones in assay buffer at various concentrations (62.5 to 1,000 nM shown for H4), association 240 s; n = 4; settings: both partners purified
# mouse histone H4 = mouse histone H4 (mouse, UniProt P62806 1-103); assay: as above; settings: both partners purified
Binder,Kd [1],kon [1],Kd (mouse histone H4),kon (mouse histone H4)
B1,387 nM,10100 M⁻¹ s⁻¹,,
B2,,,40.7 nM,1990 M⁻¹ s⁻¹
